Key:
HLA-B*15:03 = test: IEDB peptide-MHC binding, purified MHC/competitive/radioactivity; filed as Kd, often an IC50 or EC50 that approximates it; ≥ and ≤ were set here for values at or beyond the usual limits of such assays; details: source organism: Vaccinia virus WR
HLA-A*26:01 [1] = test: IEDB peptide-MHC binding, purified MHC/direct/fluorescence; filed as Kd, often an IC50 or EC50 that approximates it; ≥ and ≤ were set here for values at or beyond the usual limits of such assays; details: source organism: Vibrio vulnificus
HLA-B*07:02 = test: as above; details: source organism: Vibrio vulnificus
HLA-B*58:01 [2] = test: as above; details: source organism: Vibrio vulnificus
HLA-B*08:01 [3] = test: as above; details: source organism: Vibrio vulnificus
HLA-B*27:05 [4] = test: as above; details: source organism: Vibrio vulnificus
HLA-A*11:01 = test: as above; details: source organism: Vibrio vulnificus
HLA-A*31:01 [5] = test: as above; details: source organism: Vibrio vulnificus
HLA-B*15:01 = test: as above
HLA-A*69:01 [6] = test: as above; details: source organism: Vibrio vulnificus
HLA-A*02:01 [7] = test: as above; details: source organism: Vibrio vulnificus
HLA-A*03:01 [8] = test: as above
HLA-A*01:01 = test: as above
HLA-B*35:01 [9] = test: as above; details: source organism: Vibrio vulnificus
HLA-A*26:01 [10] = test: IEDB peptide-MHC binding, purified MHC/competitive/fluorescence; filed as Kd, often an IC50 or EC50 that approximates it; ≥ and ≤ were set here for values at or beyond the usual limits of such assays; details: source organism: Orthohantavirus tulaense
HLA-B*46:01 = test: as above
HLA-B*57:01 = test: as above; details: source organism: Orthohantavirus tulaense
HLA-B*58:01 [11] = test: as above
HLA-A*69:01 [12] = test: as above; details: source organism: Orthohantavirus tulaense
HLA-A*02:01 [13] = test: as above; details: source organism: Orthohantavirus tulaense
HLA-B*27:03 = test: as above; details: source organism: Orthohantavirus tulaense
HLA-B*35:01 [14] = test: as above
HLA-A*68:02 = test: IEDB peptide-MHC binding, purified MHC/direct/fluorescence; filed as Kd, often an IC50 or EC50 that approximates it; ≥ and ≤ were set here for values at or beyond the usual limits of such assays; details: source organism: Orthohantavirus tulaense
HLA-A*02:11 = test: as above; details: source organism: Orthohantavirus tulaense
HLA-A*02:12 = test: as above; details: source organism: Orthohantavirus tulaense
HLA-A*02:16 = test: as above; details: source organism: Orthohantavirus tulaense
HLA-A*02:19 = test: as above; details: source organism: Orthohantavirus tulaense
HLA-A*02:03 = test: as above; details: source organism: Orthohantavirus tulaense
HLA-B*08:01 [15] = test: IEDB peptide-MHC binding, purified MHC/competitive/fluorescence; filed as Kd, often an IC50 or EC50 that approximates it; ≥ and ≤ were set here for values at or beyond the usual limits of such assays; details: source organism: Yersinia pestis Nepal516
HLA-A*31:01 [16] = test: as above; details: source organism: Yersinia pestis Nepal516
HLA-A*03:01 [17] = test: as above; details: source organism: Yersinia pestis Nepal516
HLA-B*27:05 [18] = test: as above; details: source organism: Influenza A virus
[19] = source organism: Vibrio vulnificus
[20] = source organism: Orthohantavirus tulaense
[21] = source organism: Mycobacterium tuberculosis F11

## AKTSTLIFF
HLA-B*15:03
  Kd: 0.00156 µM

## ALVITINYF
HLA-B*15:03
  Kd: 0.666 µM

## EEVWRDPYL
HLA-A*26:01 [1]
  Kd: ≥ 20 µM
HLA-B*07:02
  Kd: ≥ 20 µM
HLA-B*58:01 [2]
  Kd: ≥ 20 µM
HLA-B*08:01 [3]
  Kd: ≥ 20 µM
HLA-B*27:05 [4]
  Kd: ≥ 20 µM
HLA-A*11:01
  Kd: ≥ 20 µM
HLA-A*31:01 [5]
  Kd: ≥ 20 µM
HLA-B*15:01; [19]
  Kd: ≥ 20 µM
HLA-A*69:01 [6]
  Kd: ≥ 20 µM
HLA-A*02:01 [7]
  Kd: ≥ 20 µM
HLA-A*03:01 [8]; [19]
  Kd: ≥ 20 µM
HLA-A*01:01; [19]
  Kd: ≥ 20 µM
HLA-B*35:01 [9]
  Kd: 0.0239 µM

## FAAVEGIFF
HLA-B*15:03
  Kd: 0.309 µM

## FGAAVSLLF
HLA-A*26:01 [10]
  Kd: ≥ 20 µM
HLA-B*46:01; [20]
  Kd: ≥ 20 µM
HLA-B*57:01
  Kd: ≥ 20 µM
HLA-B*58:01 [11]; [20]
  Kd: 0.0013 µM
HLA-A*69:01 [12]
  Kd: ≥ 20 µM
HLA-A*02:01 [13]
  Kd: ≥ 20 µM
HLA-B*27:03
  Kd: ≥ 20 µM
HLA-B*35:01 [14]; [20]
  Kd: 0.0027 µM
HLA-A*68:02
  Kd: ≥ 20 µM
HLA-A*02:11
  Kd: ≥ 20 µM
HLA-A*02:12
  Kd: ≥ 20 µM
HLA-A*02:16
  Kd: ≥ 20 µM
HLA-B*15:01; source organism: Orthohantavirus andesense
  Kd: 0.0536 µM
HLA-A*02:19
  Kd: ≥ 20 µM
HLA-A*03:01 [8]; [20]
  Kd: ≥ 20 µM
HLA-A*02:03
  Kd: ≥ 20 µM

## FIRLRFAFK
HLA-B*08:01 [15]
  Kd: ≥ 20 µM
HLA-A*31:01 [16]
  Kd: 0.0173 µM
HLA-A*03:01 [17]
  Kd: ≥ 20 µM

## FSIPVTFSY
HLA-B*46:01; [21]
  Kd: 0.0686 µM
HLA-B*58:01 [11]; [21]
  Kd: 0.0007 µM
HLA-B*35:01 [14]; [21]
  Kd: ≤ 0.0001 µM
HLA-A*01:01; source organism: Mycobacterium tuberculosis
  Kd: 0.316 µM

## GRVTVSTKR
HLA-B*27:05 [18]
  Kd: 0.553 µM
